The source of these data is publication PMC2680549 (Nature structural & molecular biology, 2008).

The target of data set [1] is Hsc70 nucleotide binding domain (human Hsc70 1-381) (human, UniProt P11142 1-381). In words: pull-down.
Data set [2] deals with the molecule itself. In words: AUC.
Data set [3] deals with the molecule itself. In words: AUC. This is another data set of the same source.

Chain of Hsc70 nucleotide binding domain (human Hsc70 1-381) (P11142 1-381): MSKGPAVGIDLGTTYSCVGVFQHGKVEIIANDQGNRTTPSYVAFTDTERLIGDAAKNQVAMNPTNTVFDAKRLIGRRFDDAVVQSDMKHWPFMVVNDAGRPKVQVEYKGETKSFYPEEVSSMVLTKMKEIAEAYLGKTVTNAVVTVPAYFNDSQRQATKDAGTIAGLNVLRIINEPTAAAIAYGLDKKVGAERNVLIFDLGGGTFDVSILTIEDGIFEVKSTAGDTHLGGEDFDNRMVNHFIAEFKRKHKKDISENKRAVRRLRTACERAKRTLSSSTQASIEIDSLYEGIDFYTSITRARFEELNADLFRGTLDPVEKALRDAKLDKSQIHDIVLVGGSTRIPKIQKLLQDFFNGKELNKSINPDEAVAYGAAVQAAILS

B1: GST-fused full-length human Bag2, wild type (natural protein, UniProt O95816 1-211, looked up)
chain: MAQAKINAKANEGRFCRSSSMADRSSRLLESLDQLELRVEALREAATAVEQEKEILLEMIHSIQNSQDMRQISDGEREELNLTANRLMGRTLTVEVSVETIRNPQQQESLKHATRIIDEVVNKFLDDLGNAKSHLMSLYSACSSEVPHGPVDQKFQSIVIGCALEDQKKIKRRLETLLRNIENSDKAIKLLEHSKGAGSKTLQQNAESRFN
In the case of B1, the binding result in data set [1] was “binds”.

B2: Mouse Bag2-BNB (murine Bag2 107-189) (domain or fragment, UniProt Q91YN9 107-189, looked up)
chain: EESLKHATRIIDEVVSKFLDDLGNAKSHLMSLYSACSSEVPPGPVDQKFQSIVIGCALEDQKKIKRRLETLLRNIDNSDKAIK
Usually Kd stands for the equilibrium constant for the complex coming apart. B2 gave a dissociation constant Kd in “AUC [2]” of 4.5 ± 2 µM.

B3: Near full-length murine Bag2 (Bag2 21-210) (domain or fragment, mouse, UniProt Q91YN9 21-210, looked up)
chain: MADRSSRLLESLDQLELRVEALRDAATAVEQEKEILLEMIHSIQNSQDMRQISDGEREELNLTANRLMGRTLTVEVSVETIRNPQQEESLKHATRIIDEVVSKFLDDLGNAKSHLMSLYSACSSEVPPGPVDQKFQSIVIGCALEDQKKIKRRLETLLRNIDNSDKAIKLLEHAKGAGSKSLQNTDGKFN
One may read the stoichiometry N as a count of units in the complex or per binding partner. In the case of B3, in the data set “AUC [3]”, the “stoichiometry N” value is at least 4.
